The target of this test is T1, human EGFR extracellular domain (Prospec) (human, UniProt P00533 25-645).
T1 construct: extracellular domain; Bought protein; also called epidermal growth factor receptor
As to the kind of experiment: SPR (Biacore T100); antibody captured on anti-human IgG CM5 chip, EGFR extracellular domain 6.25-100 nM as analyte; 1:1 Langmuir model. On the technique in general: SPR reads the build-up and loss of mass on a sensor chip optically.

The values that follow come from patent US20130196377A1 (SAMSUNG ELECTRONICS, published 2013).

Source text: 1× HBS-EP (GE healthcare) was used as a running buffer and a dilution buffer. About 5,000 RU (response unit) of an Anti-human IgG antibody (Jackson Immuno Research) were immobilized on a surface of a CM5 chip (GE healthcare) by standard amine-coupling. […] A contact time (association phase) was 180 seconds, and a separation time (washing with running buffer) was 600 seconds. After each binding cycle was terminated, Glycine-HCl pH 2.0 (GE healthcare) as a regeneration solution was flown onto the chip at a flow rate of 50 μL/min for 1 minute to remove the combined antigen and antibody from the chip. A sensorgram was obtained therefrom such that a fitting process was performed in BIA evaluation software by using a 1:1 Langmuir binding model for the EGFR case and by using a bivalent analyte model for the VEGF case.

B1: (E2)2, monospecific antibody recognizing the EGFR (antibody, human IgG1, V domains shown)
VL: DIQMTQSPTSLSASVGDRVTITCRASQWIGNLLDWYQQKPGEAPKLLIYYASFLQSGVPSRFSGGGFGTDFTLTISSLQPEDFATYYCQQANPAPLTFGQGTKVEIKR
notes: Homodimer of E2-hinge-Fc chains, inferred from the label (E2)2
Turning to B1, binding was put at a Kd of 4.91 nM.

Usually Kd stands for a measure of binding affinity in units of concentration.
